Results as given in US20240189423A1 (University of California, published 2024).

How the values were obtained:
[1] = biological target: T1, mouse CXCR7 (mouse, UniProt P56485 1-362); test: flow cytometry on MC38 and CT26 mouse cells
T1 construct: whole, on cells; also called mouse CXCR7 receptors

[2] = biological target: T2, CXCR7 (human (endogenous on a human cancer …, UniProt P25106 1-362)); test: flow cytometry on MDA-MB-231 cells known to express CXCR4 and CXCR7
T2 construct: whole, on cells; also called ACKR3

[3] = biological target: T3, CXCR4 (human (endogenous on a human cancer …, UniProt P61073 1-352)); test: as above
T3 construct: whole, on cells

[4] = biological target: VEGF-647 (UniProt P15692-4 27-191, biotinylated, pre-incubated with streptavidin-647); test: cell-based or functional assay
Sequence of VEGF-647 (P15692 other isoform, or with tags, fused parts or gaps limits assumed): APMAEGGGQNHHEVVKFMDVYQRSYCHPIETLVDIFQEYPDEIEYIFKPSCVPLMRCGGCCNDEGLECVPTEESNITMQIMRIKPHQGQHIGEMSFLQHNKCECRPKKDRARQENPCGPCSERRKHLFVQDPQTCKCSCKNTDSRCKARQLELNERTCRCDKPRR

T3 sequence (P61073 whole entry): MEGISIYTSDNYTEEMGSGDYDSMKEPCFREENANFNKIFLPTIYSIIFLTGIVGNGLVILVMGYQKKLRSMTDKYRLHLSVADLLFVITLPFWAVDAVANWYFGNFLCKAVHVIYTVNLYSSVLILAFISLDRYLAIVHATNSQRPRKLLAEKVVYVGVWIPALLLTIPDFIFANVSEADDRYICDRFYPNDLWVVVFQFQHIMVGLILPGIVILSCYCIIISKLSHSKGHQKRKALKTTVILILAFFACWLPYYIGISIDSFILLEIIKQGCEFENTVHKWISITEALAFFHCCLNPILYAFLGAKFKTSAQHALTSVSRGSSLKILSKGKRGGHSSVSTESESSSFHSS
T1 sequence (P56485 whole entry): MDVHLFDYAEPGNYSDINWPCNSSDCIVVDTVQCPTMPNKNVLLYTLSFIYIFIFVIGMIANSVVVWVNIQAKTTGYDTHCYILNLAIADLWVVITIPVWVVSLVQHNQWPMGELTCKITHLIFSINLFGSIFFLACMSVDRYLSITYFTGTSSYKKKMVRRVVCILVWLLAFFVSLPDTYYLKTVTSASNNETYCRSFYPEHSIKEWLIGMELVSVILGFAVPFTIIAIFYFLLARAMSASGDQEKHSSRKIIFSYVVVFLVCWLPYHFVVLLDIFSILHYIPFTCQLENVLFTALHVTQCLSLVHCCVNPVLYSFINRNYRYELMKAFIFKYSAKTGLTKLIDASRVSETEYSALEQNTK
T2 sequence (P25106 whole entry): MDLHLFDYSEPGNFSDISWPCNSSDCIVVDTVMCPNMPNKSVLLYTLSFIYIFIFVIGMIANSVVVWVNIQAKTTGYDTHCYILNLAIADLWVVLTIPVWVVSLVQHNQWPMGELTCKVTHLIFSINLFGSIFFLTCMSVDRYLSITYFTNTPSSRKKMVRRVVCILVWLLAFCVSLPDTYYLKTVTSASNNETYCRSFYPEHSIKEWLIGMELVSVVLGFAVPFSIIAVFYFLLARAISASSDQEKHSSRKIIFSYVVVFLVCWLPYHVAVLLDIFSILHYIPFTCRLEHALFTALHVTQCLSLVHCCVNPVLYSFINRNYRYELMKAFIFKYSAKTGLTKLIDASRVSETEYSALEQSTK

| Binder | binding result [1] | binding result [2] | binding result [3] | fold increase in cellular fluorescence (VEGF-647 uptake), flow cytometry, HeLa cells, 24 hr [4] |
| --- | --- | --- | --- | --- |
| CXCL12-Isotype (bispecific antibody, human IgG1, kappa, N297G, also called human CXCL12 isotype; isotype control of the CXCL12 bispecific) not shown heavy: not shown light: DIQMTQSPSSLSASVGDRVTITCRASQSVGSALAWYQQKPGKAPKLLIYSASSLYSGVPSRFSGSRSGTDFTLTISSLQPEDFATYYCQQSSYHHPITFGQGTKVEIKRTVAAPSVFIFPPSDSQLKSGTASVVCLLNNFYPREAKVQWKVDNALQSGNSQESVTEQDSKDSTYSLSSTLTLSKADYEKHKVYACEVTHQGLSSPVTKSF | binds | binds | binds | – |
| CXCL12-Bevacizumab (bispecific antibody, human IgG1, N297G) not shown heavy: not shown light: not shown | – | – | – | 32 fold |
